According to patent US20240228586A1:

target: IL-12 receptor complex (IL-12Rb1 and IL-12Rb2) on preactivated primary mouse CD8+ T cells (mouse) (UniProt Q60837); experiment: cell-based or functional assay
Sequence (Q60837 20-738, chain 1 of 2): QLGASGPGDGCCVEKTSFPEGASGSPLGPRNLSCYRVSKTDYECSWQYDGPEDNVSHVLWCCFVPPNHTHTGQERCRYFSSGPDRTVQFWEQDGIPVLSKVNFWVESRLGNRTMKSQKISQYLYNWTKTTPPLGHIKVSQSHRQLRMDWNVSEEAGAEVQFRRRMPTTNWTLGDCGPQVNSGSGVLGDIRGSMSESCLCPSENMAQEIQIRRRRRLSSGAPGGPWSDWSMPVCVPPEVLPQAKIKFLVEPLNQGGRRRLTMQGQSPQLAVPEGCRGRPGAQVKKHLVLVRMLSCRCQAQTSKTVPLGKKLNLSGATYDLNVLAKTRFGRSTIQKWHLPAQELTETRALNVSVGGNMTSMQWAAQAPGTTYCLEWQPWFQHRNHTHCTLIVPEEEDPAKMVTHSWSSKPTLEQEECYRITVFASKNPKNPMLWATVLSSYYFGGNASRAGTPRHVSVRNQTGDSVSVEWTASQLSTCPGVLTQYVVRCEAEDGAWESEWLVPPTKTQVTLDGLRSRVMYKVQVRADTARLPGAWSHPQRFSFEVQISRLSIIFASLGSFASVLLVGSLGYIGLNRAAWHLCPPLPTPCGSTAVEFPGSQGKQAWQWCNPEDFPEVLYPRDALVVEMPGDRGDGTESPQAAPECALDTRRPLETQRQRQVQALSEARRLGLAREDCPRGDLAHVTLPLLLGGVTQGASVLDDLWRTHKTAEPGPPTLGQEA
Sequence (chain, as listed by the source, chain 2 of 2): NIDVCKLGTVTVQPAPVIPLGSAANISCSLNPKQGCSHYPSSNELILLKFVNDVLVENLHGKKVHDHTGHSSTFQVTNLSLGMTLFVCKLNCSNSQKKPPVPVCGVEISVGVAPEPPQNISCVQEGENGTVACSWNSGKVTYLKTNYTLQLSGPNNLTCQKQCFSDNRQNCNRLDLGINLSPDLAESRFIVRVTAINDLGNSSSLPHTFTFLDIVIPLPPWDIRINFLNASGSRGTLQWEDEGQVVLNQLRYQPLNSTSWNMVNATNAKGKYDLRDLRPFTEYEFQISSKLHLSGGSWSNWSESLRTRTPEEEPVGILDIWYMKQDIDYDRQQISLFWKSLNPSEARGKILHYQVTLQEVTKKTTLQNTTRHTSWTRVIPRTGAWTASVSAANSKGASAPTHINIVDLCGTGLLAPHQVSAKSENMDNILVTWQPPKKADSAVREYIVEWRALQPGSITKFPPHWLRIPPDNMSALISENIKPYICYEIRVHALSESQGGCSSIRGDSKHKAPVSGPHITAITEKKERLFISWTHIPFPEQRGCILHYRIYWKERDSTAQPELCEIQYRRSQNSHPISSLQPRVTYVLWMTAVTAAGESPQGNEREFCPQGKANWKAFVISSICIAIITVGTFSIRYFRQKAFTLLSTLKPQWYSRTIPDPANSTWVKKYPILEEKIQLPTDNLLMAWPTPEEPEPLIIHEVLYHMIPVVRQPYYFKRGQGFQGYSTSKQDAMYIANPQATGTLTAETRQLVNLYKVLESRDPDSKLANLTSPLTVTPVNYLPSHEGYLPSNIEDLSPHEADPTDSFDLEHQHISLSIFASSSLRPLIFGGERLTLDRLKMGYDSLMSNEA

| STAT4 phosphorylation in preactivated primary mouse CD8+ T cells, EC50 compared with unmodified IL-12 (fold decrease) | Substance |
| --- | --- |
| 100 | M-L1-IL12 (mouse IL-12Rb1 mask fused through the (G3S)11 linker to the N-terminus of mouse p35, with mouse p40) (from UniProt P43432 23-335) |
| 100 | M-L1-IL12-CBD (from UniProt P04275 1670-1874) |
| 100 | M-L1-IL12-MSA (from UniProt P43432 23-335) |
